For 50 substances, Peptide exchange results are on record in patent US12084522B2, “Peptides, combination of peptides, and cell based medicaments for use in immunotherapy against urinary bladder cancer and other cancers” (Immatics Biotechnologies GmbH, priority 2016, dated 2024).

The target of the experiment is HLA-A*02:01 (Homo sapiens, UniProt P04439, D140Y/D185E/D98H/E176V/E277Q/G131W/G231S/I119V/I121R/I166T/I218V/L300P/L318F/N151K/N90K/P208A/P217A/Q86G/Q94H/R138H/R169H/T345S). The experiment is described as follows: MHC binding assay (UV-ligand exchange, β2m ELISA, peptide exchange yield). The settings on record: binding to HLA-A*02:01 ranged by peptide exchange yield (UV-ligand exchange, β2m ELISA). From the text:
Candidate peptides for T cell based therapies according to the present invention were further tested for their MHC binding capacity (affinity). The individual peptide-MHC complexes were produced by UV-ligand exchange, where a UV-sensitive peptide is cleaved upon UV-irradiation, and exchanged with the peptide of interest as analyzed. Only peptide candidates that can effectively bind and stabilize the peptide-receptive MHC molecules prevent dissociation of the MHC complexes. To determine the yield of the exchange reaction, an ELISA was performed based on the detection of the light chain (β2 m) of stabilized MHC complexes. The assay was performed as generally described in Rodenko et al. (Rodenko et al., 2006).
96 well MAXISorp plates (NUNC) were coated over night with 2 μg/ml streptavidin in PBS at room temperature, washed 4× and blocked forth at 37° C. in 2% BSA containing blocking buffer. Refolded HLA-A*02:01/MLA-001 monomers served as standards, covering the range of 15-500 ng/ml. Peptide-MHC monomers of the UV-exchange reaction were diluted 100 fold in blocking buffer. Samples were incubated for 1 h at 37° C., washed four times, incubated with 2 ug/ml HRP conjugated anti-β2 m for 1 h at 37° C., washed again and detected with TMB solution that is stopped with […]. Absorption was measured at 450 nm. Candidate peptides that show a high exchange yield (preferably higher than 50%, most preferred higher than 75%) are generally preferred for a generation and production of antibodies or fragments thereof, and/or T cell receptors or fragments thereof, as they show sufficient avidity to the MHC molecules and prevent dissociation of the MHC complexes.
“92 (ALLDEQQVNVLL; listed as Homo sapiens) [compound 92]”: the Peptide exchange result is “+++ (>50 = +++)”.

Take “93 (LLDLIQTKV; listed as Homo sapiens) [compound 93]”: the Peptide exchange result is on record as “+++ (>50 = +++)”.

“94 (ALADGVPVAL; listed as Homo sapiens) [compound 94]”: the Peptide exchange result is “+++ (>50 = +++)”.

With “95 (YLIGQHVTA; listed as Homo sapiens) [compound 95]”, the Peptide exchange result is recorded as “++++ (>75% = ++++)”.

Take “96 (KLTNGIWVL; listed as Homo sapiens) [compound 96]”: the Peptide exchange entry was “+++ (>50 = +++)”.

“97 (TVGPGLLGV; listed as Homo sapiens) [compound 97]”: the Peptide exchange entry was “+++ (>50 = +++)”.

Consider “98 (YLIGLDPENLAL; listed as Homo sapiens) [compound 98]”, for which the Peptide exchange entry is recorded as “+++ (>50 = +++)”.

Consider “99 (ALIGDDVGL; listed as Homo sapiens) [compound 99]”, for which the Peptide exchange result is recorded as “+++ (>50 = +++)”.

Take “100 (SLQSFIHGV; listed as Homo sapiens) [compound 100]”: the Peptide exchange result was “+++ (>50 = +++)”.

Regarding “101 (ILDEMRAQL; listed as Homo sapiens) [compound 101]”, the Peptide exchange result is given as “+++ (>50 = +++)”.

Consider “102 (GLYEGLDWL; listed as Homo sapiens) [compound 102]”, for which the Peptide exchange entry was “+++ (>50 = +++)”.

Take “103 (GLYSGEVLV; listed as Homo sapiens) [compound 103]”: the Peptide exchange result is “++++ (>75% = ++++)”.

In the case of “105 (TLFPSKIGV; listed as Homo sapiens) [compound 105]”, the Peptide exchange entry is on record as “+++ (>50 = +++)”.

On to “106 (ILLDTPLFL; listed as Homo sapiens) [compound 106]”, for which the Peptide exchange entry is given as “+++ (>50 = +++)”.

For the substance “107 (LTLAKLEKV; listed as Homo sapiens) [compound 107]”, the Peptide exchange entry is reported as “++ (>20% = ++)”.

With “108 (YLDPNQRDL; listed as Homo sapiens) [compound 108]”, the Peptide exchange entry is reported as “+++ (>50 = +++)”.

As to “109 (RLIDDMVAQA; listed as Homo sapiens) [compound 109]”, the Peptide exchange entry is recorded as “+++ (>50 = +++)”.

“110 (VLFNIDGQGNHV; listed as Homo sapiens) [compound 110]”: the Peptide exchange entry is reported as “+++ (>50 = +++)”.

As for “112 (YLDPSLNSL; listed as Homo sapiens) [compound 112]”, the Peptide exchange entry is given as “+++ (>50 = +++)”.

Regarding “113 (FVFEPPPGV; listed as Homo sapiens) [compound 113]”, the Peptide exchange entry is on record as “++++ (>75% = ++++)”.

On to “115 (SLLDFERSL; listed as Homo sapiens) [compound 115]”, for which the Peptide exchange result is given as “+++ (>50 = +++)”.

With “116 (QLAWFDTDL; listed as Homo sapiens) [compound 116]”, the Peptide exchange result is reported as “+++ (>50 = +++)”.

Regarding “117 (YMLDIFHEVL; listed as Homo sapiens) [compound 117]”, the Peptide exchange result was “+++ (>50 = +++)”.

In the case of “118 (RLLDFPTLLV; listed as Homo sapiens) [compound 118]”, the Peptide exchange entry is listed as “+++ (>50 = +++)”.

As for “119 (SLDEKQNLV; listed as Homo sapiens) [compound 119]”, the Peptide exchange result is “+++ (>50 = +++)”.

With “120 (IIIPEIQKV; listed as Homo sapiens) [compound 120]”, the Peptide exchange result was “+++ (>50 = +++)”.

For the substance “121 (QLQGYLRSV; listed as Homo sapiens) [compound 121]”, the Peptide exchange result is “+++ (>50 = +++)”.

On to “122 (ILEPSLYTV; listed as Homo sapiens) [compound 122]”, for which the Peptide exchange entry is reported as “++++ (>75% = ++++)”.

In the case of “123 (NLAGVYSEV; listed as Homo sapiens) [compound 123]”, the Peptide exchange result is recorded as “++++ (>75% = ++++)”.

Consider “124 (QIDGTLSTI; listed as Homo sapiens) [compound 124]”, for which the Peptide exchange entry is “+++ (>50 = +++)”.

As to “127 (KLNATNIEL; listed as Homo sapiens) [compound 127]”, the Peptide exchange entry is listed as “+++ (>50 = +++)”.

Consider “128 (KLWGQSIQL; listed as Homo sapiens) [compound 128]”, for which the Peptide exchange entry is “++++ (>75% = ++++)”.

Regarding “129 (YLEPKLTQV; listed as Homo sapiens) [compound 129]”, the Peptide exchange entry is on record as “+++ (>50 = +++)”.

Regarding “130 (TLTSKLYSL; listed as Homo sapiens) [compound 130]”, the Peptide exchange entry was “++++ (>75% = ++++)”.

With “131 (ILTSIQSLL; listed as Homo sapiens) [compound 131]”, the Peptide exchange entry is recorded as “++++ (>75% = ++++)”.

As for “132 (YILEGEPGKV; listed as Homo sapiens) [compound 132]”, the Peptide exchange result was “++++ (>75% = ++++)”.

In the case of “133 (GLDPLGYEIQL; listed as Homo sapiens) [compound 133]”, the Peptide exchange result is listed as “++++ (>75% = ++++)”.

Take “134 (IVAPGTFEV; listed as Homo sapiens) [compound 134]”: the Peptide exchange entry was “+++ (>50 = +++)”.

Take “135 (FLLPLIIVL; listed as Homo sapiens) [compound 135]”: the Peptide exchange result is on record as “+++ (>50 = +++)”.

As for “136 (GLSEPIFQL; listed as Homo sapiens) [compound 136]”, the Peptide exchange result is listed as “+++ (>50 = +++)”.

As to “137 (ALFPHLLQPVL; listed as Homo sapiens) [compound 137]”, the Peptide exchange entry is reported as “++++ (>75% = ++++)”.

In the case of “138 (YLTNEGIQYL; listed as Homo sapiens) [compound 138]”, the Peptide exchange entry is “+++ (>50 = +++)”.

In the case of “139 (LLYPTEITV; listed as Homo sapiens) [compound 139]”, the Peptide exchange entry is “+++ (>50 = +++)”.

Turning to “140 (ALLDGRVQL; listed as Homo sapiens) [compound 140]”, the Peptide exchange result is reported as “++++ (>75% = ++++)”.

“141 (SMFGAGLTV; listed as Homo sapiens) [compound 141]”: the Peptide exchange result is recorded as “++++ (>75% = ++++)”.

As to “142 (FLGENISNFL; listed as Homo sapiens) [compound 142]”, the Peptide exchange entry is “+++ (>50 = +++)”.

Consider “143 (TLVTGLASV; listed as Homo sapiens) [compound 143]”, for which the Peptide exchange entry is listed as “+++ (>50 = +++)”.

As for “144 (YLAGEAPTL; listed as Homo sapiens) [compound 144]”, the Peptide exchange entry is listed as “+++ (>50 = +++)”.

Turning to “145 (ALYPGQLVQL; listed as Homo sapiens) [compound 145]”, the Peptide exchange entry was “+++ (>50 = +++)”.

On to “147 (QMLELITRL; listed as Homo sapiens) [compound 147]”, for which the Peptide exchange result is given as “+++ (>50 = +++)”.
